Results reported in patent US11479601B2, “Antibodies specific to Sonic Hedgehog and method of use thereof” (The Regents of the University of California, priority 2016, dated 2022).

Experiments:
A549 cells = assay: Viability of A549 cells treated with Shh antibodies ± GLI inhibitor 249C; type: cell-based, human; details: for Cell viability of A549 cells: 249C at 40 nM where added
Method: The effect of the C-terminal Shh antibodies from clones 2G4 and 2D9 on the viability of A549 cells was determined. A549 cells were exposed to increasing concentrations of the C-terminal Shh antibodies (2G4, 2D9), or antibodies against the N-terminal portion of Shh protein (6D3, 2E1), and the effective dose (ED50) was determined (assay 1: FIG. 16A; assay 2: FIG. 16B). […] Possibly due to the fact that very few cells express full-length Shh on the cell surface, the cytotoxic effect of the C-terminal Shh antibodies was not as potent as the cytotoxic effect of the N-terminal antibodies.
Next, the cytotoxicity of the C-terminal Shh antibodies was tested when the antibodies were used in conjunction with a small-molecule inhibitor of GLI zinc-finger transcription factor signaling, 249C (4-(5-chlorofuran-2-yl)-1,3-bis(2,4-difluorophenyl)-5-methyl-N-((4-methylmorpholin-2-yl)methyl)-4,5-dihydro-1H-pyrazole-5-carboxamide; Compound 135 above). A549 cells were exposed to varying concentrations of the C-terminal antibodies (2G4, 2D9) or the N-terminal antibodies (6D3, 2E1), in the presence or absence of a very low dose (40 nM) of 249C. (The IC50 of 249C in A549 cells is ˜70 nM.)

[1] = test system: Shh 247-264 AA and Shh 448-462 AA peptides; assay: Biolayer interferometry (Octet RED 384) with Shh peptide-mimic ligands; type: binding, human; details: 37-3000 nM peptides; versus IgG control antibody
Method: Antibody immobilization was checked via Octet® Software (ForteBio) prior to introduction of increasing concentrations (37, 111, 333, 1000, 3000 nM) of Sonic Hedgehog peptide-mimic ligands (Shh 247-264 AA and Shh 448-462 AA). Graphical output from the Octet® Software of representative data from two independent experiments is presented.

[2] = molecular target: T1, cell-surface Sonic Hedgehog on A549 cells (Homo sapiens, UniProt Q15465); assay: FACS of non-permeabilized A549 cells labeled with anti-Shh antibodies; type: binding; details: A549, without membrane permeabilization
T1 construct: recognize cell-surface expression of Sonic Hedgehog, A549 cells were labeled with in-house antibodies; endogenous in cells; host or cells: A549
Method: A549, 293T or 293T (+pCMV Shh) cells were labeled with Sonic Hedgehog (Shh) antibody (Abcam 53281, 1:100) or therapeutic test antibodies (1:100) for 1 hour at RT post serum blocking. Following two PBS washes, a FITC-conjugated secondary antibody (Abcam 97029, 1:100) or an Alexa-Fluor 647 (Invitrogen, 1:1000) was used to label cells. Samples were screened by flow cytometry using an Accuri™ C6 machine (BD Biosciences). For fluorescence activated cell sorting, samples were sorted using an S3e™ Cell Sorter (Bio-Rad) and the Shh+ population was collected. For all experiments, cells processed without primary antibody served as a negative control. Experiments were performed in duplicates or triplicates.
To corroborate that the two anti-Shh antibodies, 1C11-2G4 and 1C11-2D9, recognize cell-surface expression of Sonic Hedgehog, A549 cells were labeled with in-house antibodies and sorted via Fluorescence Activated Cell Sorting (FACS) without membrane permeabilization. […] BMC Cancer. 15:84 (2015); Singh S, Trevino J, Bora-Singhal N, Coppola D, Haura E, Altiok S, Chellappan S P. EGFR/Src/Akt signaling modulates Sox2 expression and self-renewal of stem-like side-population cells in non-small cell lung cancer. Mol Cancer. 11:73 (2012); Cochrane C R, Szczepny A, Watkins D N, Cain J E. Hedgehog Signaling in the Maintenance of Cancer Stem Cells. Cancers (Basel). […]

binding response to Shh peptide-mimic ligands (BLI) [1]: increases in binding response
Shh+ cells recognized from a mixed population (FACS) [2]: 0.11%
B1: 2G4: purified mouse monoclonal C-terminal Shh antibody from hybridoma sub-clone 2G4 of clone 1C11, IgG1 kappa (antibody, V domains shown)
VH: EVKLVESGGGLVKPGGSLKLSCAASGFTFSSYTMSWVRQTPAKRLEWVATISSGGGNTYYPDSVKGRFTISRDNARNTLYLQMSSLRSEDTAMYYCARDYRSLFAYWGQGTLVTVSA
VL: QIVLTQSPAIMSASPGEKVTITCSASSSVSYMHWFQQKPGTSPKLWIYSTSNLASGVPARFSGSGSGTSYSLTISRMEAEDAATYYCQQRSSYPFTFGSGTKLEIK
Cell viability of A549 cells (A549 cells; Ab conc. 32 ng/mL): 99%
Cell viability of A549 cells (A549 cells; Ab conc. 64 ng/mL): 95%
Cell viability of A549 cells (A549 cells; Ab conc. 128 ng/mL): 91%
synergy with a GLI inhibitor in reducing viability of non-small cell lung cancer cells (A549 cells; with 249C at 40 nM): act synergistically
